These results are taken from the RNAGym collection of RNA variant scans (doi:10.7554/elife.80360).

The labels stand for the following.
B1: Hammerhead Ribozyme (parent)
chain: ACCGGAUGUGCUUUCCGGUCUGAUGAGUCCGUGAGGACGAAACAG

Variants of B1 are the subject of the data set. The data set can be described thus: self-cleavage, relative activity (ratio to wild type); higher = more cleavage; co-transcriptional.
ACCGGAUGUGCUUUACGGUCUGAUGAGUCAGUGAGGACGAAACAG [C15A C30A]: the self-cleavage amounted to 0.782.
For ACCGAAUGUGCUUACCGGUCUGAUGAGUCCGUGAGGACGAAACAG [G5A U14A], the self-cleavage stood at 1.58.
With ACCGGAUGUGCUUUCCCGUCUGAUGAGUCCGUGAGGACGUAACAG [G17C A40U], the self-cleavage came out at 0.3.
Consider ACCGGAUGUGCUUUCCGGUCUGAUGAGUCCGUUAGGACGAAACCG [G33U A44C], for which the self-cleavage turned out to be 0.596.
As to ACCGGAUGGGCUUUCCGGACUGAUGAGUCCGUGAGGACGAAACAG [U9G U19A], the self-cleavage was determined as 0.376.
As for ACCGGAUGUGCUUUUCGGUCUGAUGAGUCCGUGAGGACGAUACAG [C15U A41U], the self-cleavage was determined as 0.352.
As to ACCGGAUGGGCUUUCCGGUCUGAUGAGUCCGUGAGGAUGAAACAG [U9G C38U], the self-cleavage amounted to 0.876.
Take ACCGGAUGUGCUUUCCGGUCUGAUGAGUCCGUAACGACGAAACAG [G33A G35C]: the self-cleavage came out at 0.787.
The figure for ACUGGAUGUGCUUUCCGGUCUGAUGAGCCCGUGAGGACGAAACAG [C3U U28C] is 0.854; for ACCGGAUGUGCUUUCCGGUCUGAUGAGUCCGUCAGGACGAAACAU [G33C G45U] it is 0.874; for ACCGGAAGUGCUUUCCGGUCUGAUGAGUCCGUGAGGAAGAAACAG [U7A C38A] it is 0.49.
ACCGGAUGUGCUUUCCGGUCUGACGAGUCCGUGAUGACGAAACAG [U24C G35U]: the self-cleavage amounted to 0.655.
In the case of ACCGGAUGUGCUUGCAGGUCUGAUGAGUCCGUGAGGACGAAACAG [U14G C16A] it was 0.642; in that of AUCGGAUGUGCUUUCCGGUCUGAUGAGUCCGUGCGGACGAAACAG [C2U A34C], 0.933.
ACCGGAAGUGCUUUCCGGUCUUAUGAGUCCGUGAGGACGAAACAG [U7A G22U]: the self-cleavage stood at 0.231.
ACCGGAUGUGAUUUCCGGUCCGAUGAGUCCGUGAGGACGAAACAG [C11A U21C]: the self-cleavage stood at 0.848.
Regarding ACCGGAUGUGAUUUCCGGUCUCAUGAGUCCGUGAGGACGAAACAG [C11A G22C], the self-cleavage came out at 0.35.
On to ACCGGAUGUGCAUUCCGGUCUGAUGAGUCCUUGAGGACGAAACAG [U12A G31U], for which the self-cleavage came out at 1.12.
Regarding ACCGGAUGUGCUUUCCGGUCUGAUGAGUCCGUGAGAACAAAACAG [G36A G39A], the self-cleavage worked out at 0.337.
In the case of ACCGGAGGUGCUUUCCGGUCUGAUGAGUCCGUGAGGACGAAACAA [U7G G45A] it was 0.559.
ACUGGAUGUGCUUUCCGGUCUGAUGAGUUCGUGAGGACGAAACAG [C3U C29U]: the self-cleavage came out at 0.926.
Turning to ACCGGAUGUUCUUUCCGGUCUGAUGGGUCCGUGAGGACGAAACAG [G10U A26G], the self-cleavage was 0.317.
As to ACCGGAUGUGCUUUCCGGUCUGAUGAGUCCGUGAGGUCGACACAG [A37U A41C], the self-cleavage turned out to be 0.34.
For ACCGGAUGUGCUUUCCGGUCUAAUGGGUCCGUGAGGACGAAACAG [G22A A26G], the self-cleavage is 0.269.
As for ACCGGAUGUCCUUUCCCGUCUGAUGAGUCCGUGAGGACGAAACAG [G10C G17C], the self-cleavage came to 0.614.
Consider ACCGGAUGUGCUUUUCGGUCUGAUGAGUCCGUGAGGACGAAACAC [C15U G45C], for which the self-cleavage is 0.646.
On to ACCGGAUGUGCUUUCCGGUCUGAUGAGUCCGUGAGGACAGAACAG [G39A A40G], for which the self-cleavage was determined as 0.383.
ACCGGAUGUGCUUUCCGGUCUGAUGAGUCCGUUAGGACGAAGCAG [G33U A42G]: the self-cleavage amounted to 0.312.
For the variant ACCGGAUGUGAUUUCCGGUCUGAUGAGUCCGUGAGGAUGAAACAG [C11A C38U], the self-cleavage was 1.1.
AACGGAUGUGCUUUCCGGACUGAUGAGUCCGUGAGGACGAAACAG [C2A U19A]: the self-cleavage turned out to be 0.308.
In the case of ACCACAUGUGCUUUCCGGUCUGAUGAGUCCGUGAGGACGAAACAG [G4A G5C] it was 0.365.
In the case of ACCGGAUGUGCUUUCCGGUCUGAUGAGGCCGUGGGGACGAAACAG [U28G A34G], the self-cleavage was found to be 0.793.
Regarding ACCGGAUGUGCUUUCCGGUCUGAUGAGUCCCUAAGGACGAAACAG [G31C G33A], the self-cleavage stood at 1.08.
Regarding ACCGGAUGUGCUUUCCGGUCUGAUGAGUCCGUGCGGAAGAAACAG [A34C C38A], the self-cleavage was 0.472.
In the case of ACCGGAUGUGCUUUCGGGUCUGAUGAGUCCGUGAGGACGAAACUG [C16G A44U] it was 0.335; in that of ACCGGAUGUGCUUUCCGGUCUGAUGUGUCCGUGAGGAAGAAACAG [A26U C38A], 0.6; in that of ACCGGAUGUGCUUUCCGGUCUGAUGGGUCCGUGAGGACGAAACAC [A26G G45C], 0.389.
On to ACCGGAUGUGCUUUCCGGUCUGAUGAGUCCGAGAGGACUAAACAG [U32A G39U], for which the self-cleavage came out at 0.366.
Take CCCGGAUGUGCUUUCCGGUCUGAUGAGUCCGUGAGGACGAAACCG [A1C A44C]: the self-cleavage was 0.376.
On to ACCGGAAGUGCUUUCCGGUAUGAUGAGUCCGUGAGGACGAAACAG [U7A C20A], for which the self-cleavage worked out at 0.298.
As to ACCGGAUGAGCUUUCCUGUCUGAUGAGUCCGUGAGGACGAAACAG [U9A G17U], the self-cleavage is 0.565.
Consider ACCGGAUGUGCUUUCCGGUCUGAUGAGCCCGUGAGGACGAAAGAG [U28C C43G], for which the self-cleavage amounted to 0.334.
In the case of ACAGGAUGUGCUUUGCGGUCUGAUGAGUCCGUGAGGACGAAACAG [C3A C15G], the self-cleavage worked out at 0.346.
As to AUCGGAUGUGCUUUCCGGUGUGAUGAGUCCGUGAGGACGAAACAG [C2U C20G], the self-cleavage is 0.37.
Turning to ACCGGAAGUGCUUUCCGGUCUGAUGAGUCCGUGAGGACGAAAAAG [U7A C43A], the self-cleavage was found to be 0.317.
For the variant ACCGGAGGUGCUUGCCGGUCUGAUGAGUCCGUGAGGACGAAACAG [U7G U14G], the self-cleavage came out at 0.831.
Regarding ACCGGAUGUGCUUUCCGGUCUGAUGAGUUCGUGAGGACGAAACGG [C29U A44G], the self-cleavage is 1.27.
Turning to ACCGGAUGUGCUUUCCGGUCUGAUGAGUCCUUGAGGACGAUACAG [G31U A41U], the self-cleavage is 0.324.
On to ACCGGAUGUGCUUUCCGGACUGAUGAGUCCGUGGGGACGAAACAG [U19A A34G], for which the self-cleavage was found to be 0.36.
Regarding ACCGGAAGUGCUUUCCGGUCUGAUGAGUCGGUGAGGACGAAACAG [U7A C30G], the self-cleavage was 1.05.
On to AGCGGAUGUGCUUUCCGGUCUGAUGAGUCCGUGAGGACGAAAGAG [C2G C43G], for which the self-cleavage worked out at 0.308.
For the variant ACCGGAUGUGCUUUCCGGUCAGAUGAGUGCGUGAGGACGAAACAG [U21A C29G], the self-cleavage turned out to be 0.354.
The figure for ACCGGAUGUGCUUCCUGGUCUGAUGAGUCCGUGAGGACGAAACAG [U14C C16U] is 0.95; for ACCGGAUGUGCUUUCCGGUCUGAUGAGUCCCUGAGGACGGAACAG [G31C A40G] it is 0.302; for ACCGGAAGUGCUUUCCGGUCUGAUGAGUCCGUCAGGACGAAACAG [U7A G33C] it is 1.44.
Turning to ACCGGAUGUGCUUUCCGGUCUGAUGAGUCCGUGAGUACGACACAG [G36U A41C], the self-cleavage came to 0.309.
As for ACCGGAUGUGCUUUCCGGGCUGAUGCGUCCGUGAGGACGAAACAG [U19G A26C], the self-cleavage was 0.323.
